Measurements reported in the nanobody polyreactivity screen of Harvey et al. (2022).

Experiment: yeast display, Sf9 membrane polyspecificity reagent, FACS + sequencing; frameworks hold sequencing errors
In short: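 A synthetic nanobody library was expressed on Saccharomyces cerevisiae BJ5465 by galactose induction for 36–48 hours. The library was stained for 1 hour at 4 °C with 10% biotinylated, detergent-solubilized Sf9 membrane reagent and enriched with streptavidin microbeads before FACS. Low and high (top ~1%) gates were set on anti-HA fluorescence for expression and streptavidin fluorescence for reagent binding, and each polyreactivity label reflects the gate of origin.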

QVQLVEAGGGLVQAGGSLRLSCAASGIIFGFYAMGWYRQAPGKERELVAAITNDGGNTNYADSVKGRFTISRDNAKNTVYLQMNSLKPEDTAVYYCNADRTQDRTPYTYATFDYWGQGTQVTVSS
polyreactivity (PSR sort gate): low polyreactivity

QVQRVESGGGLVHAAGSRRLSCAASGSIFWPYAMGWYRLAPGKEREFVAPISSSGSRTHYADSVKGRFTISRDTAKNTVYLQMNSLKPEDTAVYYCATDSRVITWYGGVEFDYWGQGTQVTVSS
polyreactivity (PSR sort gate): low polyreactivity

QVQLVESGGGLVQAGGSLRLSCAASGSTFAFYAMGWYRQAPGKERELVAAISSSGARTYYADSVKGRFTISRYNAKNTVYLQMNSLKPEDTAVYYCAAAFYRLYITSYYYWGQGTQVTVSS
polyreactivity (PSR sort gate): high polyreactivity

QVQLVESGGGLVQAGGSLRLSCAASGRIFSQYDMGWYRPAPGKERELVAAISGGVGTNYADSVKGRFTISRDNAKNTVYLQMNSLKPEDTAVYYCAADYSFERSEYEYWGQGTQVTVSS
polyreactivity (PSR sort gate): low polyreactivity

QVQLVESGGGLVQAGGSLRLSCAASGFTFDDYTMGWYRQAPGKEREFVAAISSSGGSTYYADSVKGRFTISRDNAKNTVYLQMNSLKPEDTAVYYCAADARYYDYYEYDYWGQGTQVTVSS
polyreactivity (PSR sort gate): high polyreactivity

QVQLVESGGGLVQAGGSLRLSCAASGRIFRFYAMGWYRQAPGKDRELVAAISSRGGSTYYADSVTGRFTISRDNAKNTVYLQMNSLKPEDTAVYYCAKRSQKAYKYRDYRFDYWGQGTQVTVSS
polyreactivity (PSR sort gate): high polyreactivity

QVQLVESGGGLVQAGGSLRLSCAASGRTFYFNAMGWYRQAPGKERELVAAITNSGGSTYYADSVKGRFTISRDNAKNTVYLQMNSLKPEDTAVYYCAATYKDGYWLVPGYGYWGQGTQVTVSS
polyreactivity (PSR sort gate): low polyreactivity

QVQLEESGGGLVQAGGSLRLSCAASGRIFGVNAMGWYRQAPGKERELVAAIRYSGGSTYYADSVKGRFTISRDNAKNTVYLQMNSLKPEDTAVYYCARDVWNYWDGVFQYYSYDFDYWGQGTQVTVSS
polyreactivity (PSR sort gate): low polyreactivity

QVQLVESGGGLVQAGGSLRLSCAASGSTFTKYDMGWYRQAPGKERELVAAIRSGGDTNYADSVKGRFTISRDNAKNTVYLQMNSLKPEDTAVYYCAATVLGDYEYWGQGTQVTVSS
polyreactivity (PSR sort gate): low polyreactivity

QVQLVESGGRLVQAGGSLSLSCAASGSIFYRNAMGWYSQAPAKEWEFVAVITSSGTSTYYADSVKGRFTISRDNEKNTVSFQMKSLKPEDTAVYYCAADESSPSRGDYWGQGTQVSVSS
polyreactivity (PSR sort gate): low polyreactivity

QVQLVESGGGLVQAGGSLRLSCAASGRTFVIYAMGWYRQAPGKASELVAGIDSGTSTYADSVKGRFTISRDNAKNTVYLQMNSLKPEDTAVYYCAADFAPDGSGWYIPGDYDSWGQGTQVTVSS
polyreactivity (PSR sort gate): low polyreactivity

QVQLVESGGGLVQAGGSLRLSCAASGRIFAFYAMGWYRQAPGKERELVAAITWSGGSTYYADSVKGRFTISRDNAKNTVYLQMNSLKPEDTAVYYCAARYRHYFVRGGYWGQGTQVTVSS
polyreactivity (PSR sort gate): high polyreactivity

QDQLVESVGGLVQAGVSLRLSCAASGSTLRKYAMGWYRQAPGKESELVAAISNSGGGTYYADSVKGRFTISRDNAKNTVYLQMNSLKPEDTAVYYCAARYGPSYGYGLYYPRRDYWGQGTQVTVSS
polyreactivity (PSR sort gate): high polyreactivity

QVQLVESGGGLDQAGGSLRLSCAASGRTFAYYTMGWYRQAPGKERELVAAITSSGGSTYYADSVKGRFTISRDNAKNTVYLQMKSLKPEDTAVYYCNAYGLRWASRLGYDYWGQGTQVTVSS
polyreactivity (PSR sort gate): high polyreactivity

QVQLVESGGGIVQAGGSLRLSCAASGRIFQYYAMGWYRQAPGKERELVASISGRGGRTYYADSVKGRFTISRDNAKNTVYLQMNSLKPEDTAVYYCNAVFSTIRYIRSYNYWGQGTQVTVSS
polyreactivity (PSR sort gate): high polyreactivity

QVQLVESGGGLVQAGGSLRLSCAASGRIFGWYAMGWYRQAPGNEREFVAAITVTGGSTYYADSVKGRCTISRDNAKNTVYLQMNSLKPEDTAVYYCAADRWYTRTGFDYWGQGTQVTVSS
polyreactivity (PSR sort gate): low polyreactivity

QVQLVESGGGLVQAGGSLRLSCAASGRTYYYNAMGWYREAPGKERELVARISQRTGSTYYADSVKGRFTISRDNAKNTVYLQMNSLKPEDTAVYYCAASSQTRQWTNDYWGQGTQVTVSS
polyreactivity (PSR sort gate): high polyreactivity

QVPLVESGGGLVQAGGSLRLSCAASGRIFGYYARGWYRQAPGKDRELVASIRRGTRTNYADSVKGRFTISRDNAKNTVYLQMNSLKPEDTAVYYGAATRFQFTTTPWYDYWGQGTQVTVSS
polyreactivity (PSR sort gate): high polyreactivity

QVQLVESGGGLVQAGGSLRLTCAASGRTFDCYAMGLYRQAPGKERELVAAISSRGGSTYYADSVKGRFTISRDNAKNTVYLQMNSLKPEDTSVYYCAKDLGYRGRYNYWGQGTQVTVSS
polyreactivity (PSR sort gate): low polyreactivity

QVQLVESGGGLVQAGGSLRLSCAASGSILYRYTMGWYRQAPGIERELVAAITKRGGRTYYADSVKGRFTISRDNAKNTVYLQTNSLKPEDTAVYYCAAKYYTGGSFEMYYWGQGTQVTVSS
polyreactivity (PSR sort gate): high polyreactivity

QVQLVESGRGLVQAGGSLRLSCAASGRIFYYNDMGWYRQAPGKERELVASITGSGGSTYYADSVKGRFTISRDNAKNTVYLQMNSLKPEDTAVYYCAKREYLYPYYYVAKYDYWGQGTQVTVSS
polyreactivity (PSR sort gate): low polyreactivity

QVQLVESGGGLVQAGGSLRLSCAASGLTFRYYAMGWDRPAPGKERELVAAITASVGSTYYADSVKGRFTISRDNAKNTVYLQMNSLNPEDTAVYYCNADLSYFFGPYWGLYGLDYWGQGTQVTVSS
polyreactivity (PSR sort gate): low polyreactivity

QVQLVESGGGLVQAGGSLRLSCAASGSIFDWYVMGWYRQAPGKERELVAAITSGGSTNYADSVKGRFTISRDNAKNTVYLQMNSLKPEDTAVYFCAADTVSFSILYDYWGQGTQVTVSS
polyreactivity (PSR sort gate): low polyreactivity

QVQLVESGGGLVQAGGSLRLSCAASGNTFIGNAMGWYRQAPGKERELVAAISWSTDSTYYADSVKGRFTISRDNAKNSVYLQMNSLKPEDTAINYCAADYSHLPIAWYYYWGQGTQVTVSS
polyreactivity (PSR sort gate): low polyreactivity

QVQLVESGGGLVQAGGSLRLSCAASGRIFPTYAMGWYRQAPGKERELVAAITWRGGRTYYADSEKGRFTISRDYAKNTVYLQMNSLKPEDTAVYYCAAGWLTRSYEYDYWGQGTQVTVSS
polyreactivity (PSR sort gate): high polyreactivity

QVQLVESGGGLVQAGGSLRLSCAASGRTFVRYAMGWYRQAPGKERELVAAISQSGGDTYYADSVKGRFTISRDNAKNTVYLQMNSLKPEDTPVYYCAARSDDVSRYGYWGQGTQVTVSS
polyreactivity (PSR sort gate): low polyreactivity

QVQLVESGGGLVQAGGSLRLSCAASGFIFYYAMGWYRPAPGKERELVAAISSGSSTYADSVKGRFTISRDNAKNTVYLQMNSLKPEDTAVYYCATRYSSWYSNRDYDYWGQGTQVTVSS
polyreactivity (PSR sort gate): low polyreactivity

QVQLVESGAGLVQAGGSLRLSCAPSGNIFSVYAMGWYRHAPGKARELVARITKTVGGTYYADSVKGRFTISRDNAKNTVYLQMNSLKPEDTAVYYCAARVWTGNGGSKGAYDYWGQGTQVTVSS
polyreactivity (PSR sort gate): high polyreactivity

QVQLVDSGGGLVQAGGSLRLSCAASGFIIGYNAMGWYRQAPGKEREFVAAISYNGGSTRYADSVKGRFTISRDNAKNTVYLQMNSLKPEDTAVYYCAAQKARVYRGAWTRYEYWGQGTQVTVSS
polyreactivity (PSR sort gate): high polyreactivity

QVQLVESGGGLVQAGSSLRLSCAASGSTFVNNAMGWYRQAPGKERELVAAITSGGSTNYADSVKGRFTISRDNAKNTVYLQMNSLKPEDTAVYYCNADGDSWYTGIPAVSHGYWGQGTQVTVSS
polyreactivity (PSR sort gate): low polyreactivity

QVQLVESGVGLVQAGGRLRLICAASGSTYDSAMGWYIQAPGKERELVASISWSDSSTYYADSVKGRFTISPDNAKNTVYLQMTSLKPEDSAVYYCNAEQGTRDSDYWGQGTQVTVSS
polyreactivity (PSR sort gate): low polyreactivity

QVQLVESGGGIVQAGGSLRLSCAASGFTILRYVMGWYRQAPGKERELVAAISYSGGRTYYADSVKGRFTISRDNAKHTVYLHMNSLKPEDPAVYYCAAARPFGYPPVMKYDYWGQVTQVTVSS
polyreactivity (PSR sort gate): high polyreactivity

QVQLVESGGGLVQAGGSLRISCAASGSTLRRYAMGWYRQAPGKERELVAAISGSGDSTYYADSVKGRFTISRDNAKNTVYLQMNSLKPEDTAVYYCNAVYAFNGYDYWGQGTQVTVSS
polyreactivity (PSR sort gate): low polyreactivity

QVQLVESGGGLVQAGGSLRLSCAASGFTFGYYAMGWYRQAPGKERELVAAINWSGGRTYYADSVKGRFTISRDNAKNTVYLQMNSLKPEDTAVYYCAASSRTKLYYWGQGTQVTVSS
polyreactivity (PSR sort gate): high polyreactivity

QVQLVESGGGLVQAGGSLRLSCAASGFTFAQYTMGWYRQAPGKERELVAAIRVGGGSTYYADSVKGRFTISRDNAKNTVYLQMNSLKPEDTAVYYCAKRTYSRKFRGAYNYWGQGTQVTVSS
polyreactivity (PSR sort gate): high polyreactivity

QVQLVESGGGLVQAGGSLRLSCAASGSIFYQNAMGWYRQAPGKESELVAAISWRGDSTSYADSVKGRFTISRDNAKNTVYLQMNSLKPEDPAVYYCATAHDYAFYRYWYVPSEYNYWGQGTLVTVSS
polyreactivity (PSR sort gate): low polyreactivity

QVQLVESGGGLVQAGGSLRLSCAASGRIFPTNAMGWSRQAPGKERELVASITRSGSTYYADSVKGRFTISRDHAKNTVYLQMNSLKPEDTAVYYCAGYAYIFLDWGGYPYYLYEYDYWGQGTQVTVSS
polyreactivity (PSR sort gate): low polyreactivity

QVQLVESGGGLDQAGGSLRLSCAASGRTFRHYAMGWYRQAPGKERELVASIRWNGASTNYADSVKGRFTISRDNAKNTVYLQMNSLKPEDTAVYYCAARFGSGFNYWGQGTQVTVSS
polyreactivity (PSR sort gate): high polyreactivity

QVQLVESGGGLVQAGGSLRLSCAASGRTFGYYTMGWYRQAPGKEWELVATITRGGTTKYADSVKGRFTISRDNAKNTVYLQMNSLKPEDTAVYYCNARERGSRQYTFDYWGQGTQVTVSS
polyreactivity (PSR sort gate): high polyreactivity

QVQLVESGGGLVQAGGSLRLSSAASGLIFYSYTMGWNRQAPGKERELVAVISRSGTSTYYADSVKGRFTISRDNAKNTVYLQMNSLKPEDTSVYYCAALTRSGPYAYEYWGQGTQVTVSS
polyreactivity (PSR sort gate): high polyreactivity

QVQLVESGGGLVQAGGSLRLSCAASGSTFYYYALGWYRQAPGKERELVASITRGGGSTYYADSVKGRFTISRDNAKNTVYLQMNSLKPEDTAVYYCAARGRFRKYDYWGQGTQVTVSS
polyreactivity (PSR sort gate): high polyreactivity

QVQIVDSGGGLVQAGGSLRISCAASGRIFAGYGKGWYRQAPGKERELVAAISSGGSTYYADSVKGRFTISRDNAKNTVYLQMNSLKPEDTAVYYCATDGQSVPDDYYQNVDYDYWGQGTQVTVSS
polyreactivity (PSR sort gate): low polyreactivity

QVQLVESGGGLVQAGGSLRLSCAASGRIVNYYAMGWYRQAPGKERELVAAINSGGSTDYADSVKGRFTISRDNAKNTVYLQMNSLKPEDTAVYYCNAEKTYLYTDIPGYARFGYWGQGTQVTVSS
polyreactivity (PSR sort gate): high polyreactivity
